Measurements reported in IntAct's records for PubMed 19264781.

B1: Protein Vpx (Simian immunodeficiency virus (isolate PBj14/BCL-3)), P19508 (parent)
chain: MSDPRERIPPGNSGEETIGEAFDWLDRTVEEINRAAVNHLPRELIFQVWRRSWEYWHDEMGMSVSYTKYRYLCLIQKAMFMHCKKGCRCLGGEHGAGGWRPGPPPPPPPGLA
B2: Protein Vpx (Human immunodeficiency virus type 2 subtype A (isolate Ghana-1)), P18045 (parent)
chain: MTDPRERVPPGNSGEETIGEAFEWLDRTIEALNREAVNHLPRELIFQVWQRSWRYWHDDQGMSPSYTKYRYLCLMQKAVFIHFKRGCTCLGGGHGPGGWRSGPPPPPPPGLV

Variants of: B1
Conditions: with dcaf1_human DCAF1, Q9Y4B6
Target sequence in this assay (Q9Y4B6 whole entry): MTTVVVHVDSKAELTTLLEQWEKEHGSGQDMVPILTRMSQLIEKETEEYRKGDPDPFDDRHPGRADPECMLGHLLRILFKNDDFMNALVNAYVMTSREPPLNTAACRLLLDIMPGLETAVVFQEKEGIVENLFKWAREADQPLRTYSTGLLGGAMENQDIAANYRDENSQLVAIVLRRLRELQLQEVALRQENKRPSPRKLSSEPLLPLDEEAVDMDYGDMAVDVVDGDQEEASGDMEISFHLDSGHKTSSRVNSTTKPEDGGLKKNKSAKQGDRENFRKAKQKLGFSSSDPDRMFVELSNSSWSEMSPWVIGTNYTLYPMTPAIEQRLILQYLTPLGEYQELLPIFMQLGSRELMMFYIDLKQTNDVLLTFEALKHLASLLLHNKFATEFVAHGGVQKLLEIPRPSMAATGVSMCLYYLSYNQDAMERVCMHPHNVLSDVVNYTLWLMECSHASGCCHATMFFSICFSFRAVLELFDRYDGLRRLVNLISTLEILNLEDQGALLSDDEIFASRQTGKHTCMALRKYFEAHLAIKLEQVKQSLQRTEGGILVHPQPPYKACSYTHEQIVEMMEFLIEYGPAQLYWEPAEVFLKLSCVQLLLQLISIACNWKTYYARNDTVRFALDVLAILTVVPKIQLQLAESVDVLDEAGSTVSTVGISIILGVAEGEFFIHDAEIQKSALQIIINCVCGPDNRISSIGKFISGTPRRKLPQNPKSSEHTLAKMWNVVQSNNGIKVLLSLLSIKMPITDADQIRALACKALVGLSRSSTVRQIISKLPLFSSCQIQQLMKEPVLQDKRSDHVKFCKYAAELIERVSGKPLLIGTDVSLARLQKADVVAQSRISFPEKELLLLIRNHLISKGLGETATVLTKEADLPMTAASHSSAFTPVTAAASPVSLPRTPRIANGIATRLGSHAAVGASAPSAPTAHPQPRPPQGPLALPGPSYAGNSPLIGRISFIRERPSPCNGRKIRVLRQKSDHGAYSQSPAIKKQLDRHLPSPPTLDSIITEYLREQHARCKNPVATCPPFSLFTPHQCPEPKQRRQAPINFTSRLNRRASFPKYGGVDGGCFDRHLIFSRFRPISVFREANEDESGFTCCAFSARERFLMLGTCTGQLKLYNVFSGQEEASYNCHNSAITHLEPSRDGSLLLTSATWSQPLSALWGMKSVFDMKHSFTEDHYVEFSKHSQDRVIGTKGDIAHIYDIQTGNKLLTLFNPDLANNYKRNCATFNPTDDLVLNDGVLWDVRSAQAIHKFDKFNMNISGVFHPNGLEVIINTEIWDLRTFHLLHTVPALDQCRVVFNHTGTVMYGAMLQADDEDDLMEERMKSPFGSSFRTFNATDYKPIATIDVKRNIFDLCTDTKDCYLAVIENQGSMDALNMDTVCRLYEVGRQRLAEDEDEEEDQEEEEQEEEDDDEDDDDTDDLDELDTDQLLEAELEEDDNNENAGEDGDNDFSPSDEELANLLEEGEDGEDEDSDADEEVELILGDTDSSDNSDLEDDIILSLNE

Question: For Q76R, which “effect of a mutation on the interaction” value is on record?
Answer: The value was “disrupting interaction”.

Variants of: B1
Conditions: with dcaf1_human DCAF1, Q9Y4B6
Remark: another data set of the same source
Target sequence in this assay (Q9Y4B6 whole entry): as above

Question: For K77A, which “effect of a mutation on the interaction” value is on record?
Answer: The value was “disrupting interaction”.

Variants of: B2
Conditions: with dcaf1_human DCAF1, Q9Y4B6
Target sequence in this assay (Q9Y4B6 whole entry): as above

Question: How did the “effect of a mutation on the interaction” value turn out when Q76R was run?
Answer: Its value is “disrupting interaction”.
